Measured values reported in PMC4156907 (Molecular cell, 2014).
Where two headings read alike, the source gives them in different places.

T1: MDA5 (full length, FLAG-tagged) (UniProt Q9BYX4 1-1025)
T1 sequence (looked up): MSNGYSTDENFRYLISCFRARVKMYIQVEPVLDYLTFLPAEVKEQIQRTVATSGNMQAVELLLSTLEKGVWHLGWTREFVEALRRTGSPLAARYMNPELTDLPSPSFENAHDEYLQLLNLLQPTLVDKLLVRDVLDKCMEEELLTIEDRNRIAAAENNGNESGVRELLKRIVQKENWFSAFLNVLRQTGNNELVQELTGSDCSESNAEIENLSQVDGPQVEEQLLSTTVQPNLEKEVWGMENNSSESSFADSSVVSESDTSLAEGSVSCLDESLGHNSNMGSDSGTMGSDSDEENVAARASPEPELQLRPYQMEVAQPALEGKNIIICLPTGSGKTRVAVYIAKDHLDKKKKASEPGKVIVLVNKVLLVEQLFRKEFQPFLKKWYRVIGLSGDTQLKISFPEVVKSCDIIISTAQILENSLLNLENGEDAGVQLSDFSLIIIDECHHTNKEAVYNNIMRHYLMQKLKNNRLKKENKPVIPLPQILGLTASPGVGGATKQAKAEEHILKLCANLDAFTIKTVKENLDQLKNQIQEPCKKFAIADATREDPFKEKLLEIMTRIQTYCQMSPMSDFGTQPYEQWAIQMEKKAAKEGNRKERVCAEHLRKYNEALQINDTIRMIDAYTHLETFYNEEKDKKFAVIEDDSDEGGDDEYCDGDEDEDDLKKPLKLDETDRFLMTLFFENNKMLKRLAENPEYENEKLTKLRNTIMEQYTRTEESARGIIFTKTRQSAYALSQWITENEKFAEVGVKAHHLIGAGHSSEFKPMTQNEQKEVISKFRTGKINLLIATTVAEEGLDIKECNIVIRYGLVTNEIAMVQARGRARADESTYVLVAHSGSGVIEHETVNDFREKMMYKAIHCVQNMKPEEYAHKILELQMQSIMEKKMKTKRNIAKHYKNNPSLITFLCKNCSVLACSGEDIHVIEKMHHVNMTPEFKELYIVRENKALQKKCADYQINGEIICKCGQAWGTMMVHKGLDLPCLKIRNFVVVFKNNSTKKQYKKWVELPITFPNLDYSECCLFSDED

T2: MDA5-C (UniProt Q9BYX4 295-1025)
T2 sequence: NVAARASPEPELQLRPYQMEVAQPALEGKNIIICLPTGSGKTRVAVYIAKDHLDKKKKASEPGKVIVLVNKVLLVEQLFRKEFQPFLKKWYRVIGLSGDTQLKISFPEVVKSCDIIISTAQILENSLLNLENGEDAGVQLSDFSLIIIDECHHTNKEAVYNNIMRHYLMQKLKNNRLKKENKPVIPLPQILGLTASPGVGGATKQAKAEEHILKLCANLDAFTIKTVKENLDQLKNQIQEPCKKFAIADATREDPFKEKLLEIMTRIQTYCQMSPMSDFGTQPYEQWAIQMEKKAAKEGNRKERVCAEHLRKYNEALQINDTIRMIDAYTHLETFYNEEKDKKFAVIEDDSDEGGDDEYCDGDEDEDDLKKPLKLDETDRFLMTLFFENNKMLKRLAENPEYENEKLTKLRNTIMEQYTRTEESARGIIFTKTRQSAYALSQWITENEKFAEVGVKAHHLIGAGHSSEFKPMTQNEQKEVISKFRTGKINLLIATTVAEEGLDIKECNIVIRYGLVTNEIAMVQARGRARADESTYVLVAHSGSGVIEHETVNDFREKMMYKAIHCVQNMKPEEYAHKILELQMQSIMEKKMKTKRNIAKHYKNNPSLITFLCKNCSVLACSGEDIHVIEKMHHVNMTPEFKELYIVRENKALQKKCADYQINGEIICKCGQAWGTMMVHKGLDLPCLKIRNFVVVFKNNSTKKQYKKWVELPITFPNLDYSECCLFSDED

T3: LGP2 (UniProt Q96C10 1-678)
T3 sequence: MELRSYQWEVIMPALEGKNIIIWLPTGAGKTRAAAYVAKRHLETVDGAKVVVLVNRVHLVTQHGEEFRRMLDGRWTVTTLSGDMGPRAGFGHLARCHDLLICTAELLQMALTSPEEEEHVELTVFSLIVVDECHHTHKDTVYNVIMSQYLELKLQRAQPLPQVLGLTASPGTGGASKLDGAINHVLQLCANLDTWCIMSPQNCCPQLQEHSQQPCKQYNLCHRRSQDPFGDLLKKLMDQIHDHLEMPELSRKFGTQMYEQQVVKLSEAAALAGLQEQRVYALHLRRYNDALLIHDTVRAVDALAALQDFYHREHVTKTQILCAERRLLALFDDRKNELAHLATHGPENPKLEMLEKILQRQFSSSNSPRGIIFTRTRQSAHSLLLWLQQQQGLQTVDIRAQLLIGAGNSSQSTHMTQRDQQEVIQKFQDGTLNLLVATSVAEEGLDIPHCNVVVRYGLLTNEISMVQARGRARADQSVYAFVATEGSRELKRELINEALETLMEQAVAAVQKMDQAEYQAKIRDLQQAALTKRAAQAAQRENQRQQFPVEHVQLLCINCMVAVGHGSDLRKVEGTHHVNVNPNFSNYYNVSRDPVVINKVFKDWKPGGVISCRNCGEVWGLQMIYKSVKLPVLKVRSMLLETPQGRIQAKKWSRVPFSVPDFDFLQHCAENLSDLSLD


Legend:
[1] = target: T1, MDA5 (full length, FLAG-tagged); experiment: co-IP
MDA5-C [2] = target: T2, MDA5-C; experiment: single-molecule TIRF
LGP2 = target: T3, LGP2; experiment: single-molecule TIRF
MDA5-C [3] = target: T2, MDA5-C; experiment: single-molecule TIRF; remark: listed apart in the source

fold increase of co-precipitated LGP2 with poly(I:C) against without poly(I:C) [1] | Binder | Kd (MDA5-C [2]) | Kd (LGP2) | Kd (MDA5-C [3])
> 3 fold | LGP2 (FLAG-tagged) (natural protein, UniProt Q96C10 1-678, looked up) MELRSYQWEVIMPALEGKNIIIWLPTGAGKTRAAAYVAKRHLETVDGAKVVVLVNRVHLVTQHGEEFRRMLDGRWTVTTLSGDMGPRAGFGHLARCHDLLICTAELLQMALTSPEEEEHVELTVFSLIVVDECHHTHKDTVYNVIMSQYLELKLQRAQPLPQVLGLTASPGTGGASKLDGAINHVLQLCANLDTWCIMSPQNCCPQLQEHSQQPCKQYNLCHRRSQDPFGDLLKKLMDQIHDHLEMPELSRKFGTQMYEQQVVKLSEAAALAGLQEQRVYALHLRRYNDALLIHDTVRAVDALAALQDFYHREHVTKTQILCAERRLLALFDDRKNELAHLATHGPENPKLEMLEKILQRQFSSSNSPRGIIFTRTRQSAHSLLLWLQQQQGLQTVDIRAQLLIGAGNSSQSTHMTQRDQQEVIQKFQDGTLNLLVATSVAEEGLDIPHCNVVVRYGLLTNEISMVQARGRARADQSVYAFVATEGSRELKRELINEALETLMEQAVAAVQKMDQAEYQAKIRDLQQAALTKRAAQAAQRENQRQQFPVEHVQLLCINCMVAVGHGSDLRKVEGTHHVNVNPNFSNYYNVSRDPVVINKVFKDWKPGGVISCRNCGEVWGLQMIYKSVKLPVLKVRSMLLETPQGRIQAKKWSRVPFSVPDFDFLQHCAENLSDLSLD |  |  | 
 | 44bp dsRNA (dsRNA, strand 2 5' amino modifier C6 (5AmMC6)) RNA 1: CGAGCAGACUGGCAAUCCGGAUCUCCCAGGCCCGGCUUUCAAGC RNA 2: GCUUGAAAGCCGGGCCUGGGAGAUCCGGAUUGCCAGUCUGCUCG | 771 ± 207 nM | 56.1 ± 10 nM | 326 ± 138 nM
